The target of assay [1] is T1, FcγRIIa H (FcgRIIa type H, His at position 131), extracellular domain with C-terminal His tag (human, UniProt P12318 34-217).
T1 construct: extracellular domain; also called 2aH; FcgRIIa H; not shown: His tag at the C terminus
T1 sequence (looked up): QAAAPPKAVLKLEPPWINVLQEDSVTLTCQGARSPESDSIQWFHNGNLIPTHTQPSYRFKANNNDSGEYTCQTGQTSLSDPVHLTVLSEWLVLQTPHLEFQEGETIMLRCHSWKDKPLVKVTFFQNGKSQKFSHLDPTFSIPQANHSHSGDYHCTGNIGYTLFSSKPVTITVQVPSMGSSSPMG
Put plainly: SPR (Biacore), relative binding, GpH7-A5/GpH7-B3/GpL16-k0 = 100. (In general: Surface plasmon resonance follows binding to a sensor surface in real time, without labels.)

The target of assay [2] is T2, FcγRIIb, extracellular domain with C-terminal His tag (human, UniProt P31994 43-217).
T2 construct: extracellular domain; also called 2b; FcgRIIb; not shown: His tag at the C terminus
T2 sequence (looked up): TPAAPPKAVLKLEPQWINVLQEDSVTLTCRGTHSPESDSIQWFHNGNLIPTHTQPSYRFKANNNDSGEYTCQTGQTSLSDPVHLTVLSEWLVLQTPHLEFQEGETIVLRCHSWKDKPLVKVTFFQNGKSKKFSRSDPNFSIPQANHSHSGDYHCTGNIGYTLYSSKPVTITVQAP
The description is as above.

From patent US20150344570A1 (published 2015) come the findings set out here.

B1: GpH7-A5/GpH7-B3 variant K334_12R/GpL16-k0 (antibody, human IgG1, kappa)
heavy 1: not shown
heavy 2: not shown
light: DIVMTQSPLSLPVTPGEPASISCQASESLVHSNRNTYLHWYLQKPGQSPQLLIYKVSNRFSGVPDRFSGSGSGTDFTLKISRVEAEDVGVYYCSQNTHVPPTFGQGTKVEIERTVAAPSVFIFPPSDEQLKSGTASVVCLLNNFYPREAKVQWKVDNALQSGNSQESVTEQDSKDSTYSLSSTLTLSKADYEKHKVYACEVTHQGLSSPVTKSFNRGEC
notes: He Ab; alteration in one H chain only; also called He Ab
Turning to B1, the He/Con_2aH in assay [1] was 99.7 % of control. Besides, the He/Con_2b in assay [2] was 111 % of control.

B2: GpH7-A5/GpH7-B3 variant K334_20W/GpL16-k0 (antibody, human IgG1, kappa)
heavy 1: not shown
heavy 2: not shown
light: B1 light
notes: as for B1
In the case of B2, the He/Con_2aH in assay [1] was 97.6 % of control. For the same molecule, in assay [2], the He/Con_2b was 104 % of control.

B3: GpH7-A5/GpH7-B3 variant N325_08L/GpL16-k0 (antibody, human IgG1, kappa)
heavy 1: not shown
heavy 2: not shown
light: B1 light
notes: as for B1
Take B3: the He/Con_2aH in assay [1] was 52 % of control. In addition, in assay [2], the He/Con_2b was 197 % of control.

B4: GpH7-A5/GpH7-B3 variant N325_04F/GpL16-k0 (antibody, human IgG1, kappa)
heavy 1: not shown
heavy 2: not shown
light: B1 light
notes: as for B1
In the case of B4, in assay [1], the He/Con_2aH is 33.4 % of control. In assay [2], the He/Con_2b was 143 % of control.

B5: GpH7-A5/GpH7-B3 variant P331_04F/GpL16-k0 (antibody, human IgG1, kappa)
heavy 1: not shown
heavy 2: not shown
light: B1 light
notes: as for B1
For B5, the He/Con_2aH in assay [1] is 84.7 % of control. For the same molecule, the He/Con_2b in assay [2] was 110 % of control.

B6: GpH7-A5/GpH7-B3 variant L328_15Y/GpL16-k0 (antibody, human IgG1, kappa)
heavy 1: not shown
heavy 2: not shown
light: B1 light
notes: as for B1
Consider B6, for which, in assay [1], the He/Con_2aH was 90 % of control. Also, the He/Con_2b in assay [2] was 193 % of control.

B7: GpH7-A5/GpH7-B3 variant N325_09D/GpL16-k0 (antibody, human IgG1, kappa)
heavy 1: not shown
heavy 2: not shown
light: B1 light
notes: as for B1
As to B7, the He/Con_2aH in assay [1] was 53.1 % of control. Moreover, in assay [2], the He/Con_2b is 124 % of control.

B8: GpH7-A5/GpH7-B3 variant P331_20W/GpL16-k0 (antibody, human IgG1, kappa)
heavy 1: not shown
heavy 2: not shown
light: B1 light
notes: as for B1
As for B8, the He/Con_2aH in assay [1] is 82.8 % of control. Further, the He/Con_2b in assay [2] is 111 % of control.

B9: GpH7-A5/GpH7-B3 variant N325_01G/GpL16-k0 (antibody, human IgG1, kappa)
heavy 1: not shown
heavy 2: not shown
light: B1 light
notes: as for B1
Consider B9, for which the He/Con_2aH in assay [1] is 56.8 % of control. For the same molecule, in assay [2], the He/Con_2b was 101 % of control.

B10: GpH7-A5/GpH7-B3 variant N325_20W/GpL16-k0 (antibody, human IgG1, kappa)
heavy 1: not shown
heavy 2: not shown
light: B1 light
notes: as for B1
As for B10, the He/Con_2aH in assay [1] is 47.2 % of control. The He/Con_2b in assay [2] is 169 % of control.

B11: GpH7-A5/GpH7-B3 variant L328_03V/GpL16-k0 (antibody, human IgG1, kappa)
heavy 1: not shown
heavy 2: not shown
light: B1 light
notes: as for B1
As to B11, in assay [1], the He/Con_2aH was 97.8 % of control. Moreover, the He/Con_2b in assay [2] was 126 % of control.

B12: GpH7-A5/GpH7-B3 variant S337_15Y/GpL16-k0 (antibody, human IgG1, kappa)
heavy 1: not shown
heavy 2: not shown
light: B1 light
notes: as for B1
With B12, the He/Con_2aH in assay [1] is 99.4 % of control. Moreover, the He/Con_2b in assay [2] is 100 % of control.

B13: GpH7-A5/GpH7-B3 variant P331_06M/GpL16-k0 (antibody, human IgG1, kappa)
heavy 1: not shown
heavy 2: not shown
light: B1 light
notes: as for B1
In the case of B13, the He/Con_2aH in assay [1] is 85.1 % of control. The He/Con_2b in assay [2] was 102 % of control.

B14: GpH7-A5/GpH7-B3 variant S337_18N/GpL16-k0 (antibody, human IgG1, kappa)
heavy 1: not shown
heavy 2: not shown
light: B1 light
notes: as for B1
On to B14, for which the He/Con_2aH in assay [1] is 99.8 % of control. Besides, in assay [2], the He/Con_2b was 103 % of control.

B15: GpH7-A5/GpH7-B3 variant N325_03V/GpL16-k0 (antibody, human IgG1, kappa)
heavy 1: not shown
heavy 2: not shown
light: B1 light
notes: as for B1
Consider B15, for which, in assay [1], the He/Con_2aH is 45.2 % of control. Besides, the He/Con_2b in assay [2] was 111 % of control.

B16: GpH7-A5/GpH7-B3 variant L328_04F/GpL16-k0 (antibody, human IgG1, kappa)
heavy 1: not shown
heavy 2: not shown
light: B1 light
notes: as for B1
Consider B16, for which the He/Con_2aH in assay [1] was 71.7 % of control. Also, the He/Con_2b in assay [2] is 219 % of control.

B17: GpH7-A5/GpH7-B3 variant L328_09D/GpL16-k0 (antibody, human IgG1, kappa)
heavy 1: not shown
heavy 2: not shown
light: B1 light
notes: as for B1
Take B17: the He/Con_2aH in assay [1] is 58.5 % of control. Moreover, the He/Con_2b in assay [2] is 199 % of control.

B18: GpH7-A5/GpH7-B3 variant N325_07I/GpL16-k0 (antibody, human IgG1, kappa)
heavy 1: not shown
heavy 2: not shown
light: B1 light
notes: as for B1
As for B18, the He/Con_2aH in assay [1] was 38.1 % of control. Also, in assay [2], the He/Con_2b is 171 % of control.

B19: GpH7-A5/GpH7-B3 variant P331_15Y/GpL16-k0 (antibody, human IgG1, kappa)
heavy 1: not shown
heavy 2: not shown
light: B1 light
notes: as for B1
For B19, the He/Con_2aH in assay [1] was 86 % of control. Also, in assay [2], the He/Con_2b is 114 % of control.

B20: GpH7-A5/GpH7-B3 variant P331_03V/GpL16-k0 (antibody, human IgG1, kappa)
heavy 1: not shown
heavy 2: not shown
light: B1 light
notes: as for B1
Take B20: the He/Con_2aH in assay [1] was 82.5 % of control. Also, the He/Con_2b in assay [2] was 119 % of control.

B21: GpH7-A5/GpH7-B3 variant N325_13S/GpL16-k0 (antibody, human IgG1, kappa)
heavy 1: not shown
heavy 2: not shown
light: B1 light
notes: as for B1
On to B21, for which, in assay [1], the He/Con_2aH was 79.7 % of control. Besides, the He/Con_2b in assay [2] is 177 % of control.

B22: GpH7-A5/GpH7-B3 variant L328_10E/GpL16-k0 (antibody, human IgG1, kappa)
heavy 1: not shown
heavy 2: not shown
light: B1 light
notes: as for B1
Turning to B22, in assay [1], the He/Con_2aH is 55.5 % of control. For the same molecule, the He/Con_2b in assay [2] is 172 % of control.

B23: GpH7-A5/GpH7-B3 variant N325_06M/GpL16-k0 (antibody, human IgG1, kappa)
heavy 1: not shown
heavy 2: not shown
light: B1 light
notes: as for B1
As for B23, the He/Con_2aH in assay [1] is 48.2 % of control. Moreover, the He/Con_2b in assay [2] is 217 % of control.

B24: GpH7-A5/GpH7-B3 variant L328_07I/GpL16-k0 (antibody, human IgG1, kappa)
heavy 1: not shown
heavy 2: not shown
light: B1 light
notes: as for B1
B24: the He/Con_2aH in assay [1] was 93.9 % of control. Further, the He/Con_2b in assay [2] is 160 % of control.

B25: GpH7-A5/GpH7-B3 variant K334_18N/GpL16-k0 (antibody, human IgG1, kappa)
heavy 1: not shown
heavy 2: not shown
light: B1 light
notes: as for B1
Take B25: in assay [1], the He/Con_2aH was 99.7 % of control. Also, the He/Con_2b in assay [2] is 115 % of control.

B26: GpH7-A5/GpH7-B3 variant P331_10E/GpL16-k0 (antibody, human IgG1, kappa)
heavy 1: not shown
heavy 2: not shown
light: B1 light
notes: as for B1
Turning to B26, the He/Con_2aH in assay [1] is 87.1 % of control. The He/Con_2b in assay [2] was 116 % of control.

B27: GpH7-A5/GpH7-B3 variant P331_16H/GpL16-k0 (antibody, human IgG1, kappa)
heavy 1: not shown
heavy 2: not shown
light: B1 light
notes: as for B1
As to B27, in assay [1], the He/Con_2aH was 84.5 % of control. In addition, in assay [2], the He/Con_2b was 116 % of control.

B28: GpH7-A5/GpH7-B3 variant P331_07I/GpL16-k0 (antibody, human IgG1, kappa)
heavy 1: not shown
heavy 2: not shown
light: B1 light
notes: as for B1
B28: in assay [1], the He/Con_2aH is 77.4 % of control. Further, in assay [2], the He/Con_2b is 114 % of control.

B29: GpH7-A5/GpH7-B3 variant L328_19Q/GpL16-k0 (antibody, human IgG1, kappa)
heavy 1: not shown
heavy 2: not shown
light: B1 light
notes: as for B1
In the case of B29, the He/Con_2aH in assay [1] is 86.8 % of control. In addition, in assay [2], the He/Con_2b was 105 % of control.
